Measured values from the RNAGym collection of RNA variant scans (doi:10.1093/molbev/msab373).

B1: Azoarcus group I ribozyme (parent)
chain: GUGCCUUGCGCCGGGAAACCACGCAAGGGAUGGUGUCAAAUUCGGCGAAACCUAAGCGCCCGCCCGGGCGUAUGGCAACGCCGAGCCAAGCUUCGGCGCCUGCGCCGAUGAAGGUGUAGAGACUAGACGGCACCCACCUAAGGCAAACGCUAUGGUGAAGGCAUAGUCCAGGGAGUGGCGAAAGUCACACAAACCGG

Variants of: B1
Assay: reverse-splicing fitness (ratio to wild type); higher = more active; in vitro selection; Mg2+ level not given
How it was run: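 An in vitro group I ribozyme library with randomized positions was T7-transcribed and gel-purified. In triplicate, 10 pmol RNA in EPPS pH 7.5 was reacted with 50 pmoles of a 30-nt RNA substrate for 1 h at 37 °C across several added MgCl2 levels (1–48 mM), then stopped with EDTA. Products were reverse transcribed from a substrate-complementary primer, PCR-amplified and sequenced (HiSeq 4000). Fitness is a variant's read proportion after selection over that before, normalised to wild type.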

Variant | reverse-splicing fitness
GUGCCUUGCGCCGGGAAACCACGCAAGGGAUGGUGUCAAAUUCGGCGAAACCUAAGCGCCCGCCCGGGCGUAUGGCAACGCGGAGCCAAGCUUCGGCGCCUGCGCCGAUGGAGGUGUAGAGACUAGACGGCACCCACCUAAGGCAAACGAUAUGGUGAAGGCAUAGUCAAGGGAGCGGCGAAAGUCACACAAACCGG | 0.0224
GUGCCUUGCGCCGGGAAACCACGCAAGGGAUGGUGUCAAAUUCGGCGAAACCUAAGCGCCCGCCCGGGCGUAUGGCAACGCGGAGCCAAGCUUCGGCGCCUGCGCCGAUGGAGGUGUAGAGACUAGACGGCACCCACCUAAGGCAAACGAUAUGGUGAAGGCAUAGUCAAGGGAGGGGCGAAAGUCACACAAACCGG | 0.00701
GUGCCUUGCGCCGGGAAACCACGCAAGGGAUGGUGUCAAAUUCGGCGAAACCUAAGCGCCCGCCCGGGCGUAUGGCAACGCGGAGCCAAGCUUCGGCGCCUGCGCCGAUGGAGGUGUAGAGACUAGACGGCACCCACCUAAGGCAAACGAUAUGGUGAAGGCAUAGUCGAGGGAGUGGCGAAAGUCACACAAACCGG | 0.0109
GUGCCUUGCGCCGGGAAACCACGCAAGGGAUGGUGUCAAAUUCGGCGAAACCUAAGCGCCCGCCCGGGCGUAUGGCAACGCGGAGCCAAGCUUCGGCGCCUGCGCCGAUGGAGGUGUAGAGACUAGACGGCACCCACCUAAGGCAAACGAUAUGGUGAAGGCAUAGUCGAGGGAGAGGCGAAAGUCACACAAACCGG | 0.0217
GUGCCUUGCGCCGGGAAACCACGCAAGGGAUGGUGUCAAAUUCGGCGAAACCUAAGCGCCCGCCCGGGCGUAUGGCAACGCGGAGCCAAGCUUCGGCGCCUGCGCCGAUGGAGGUGUAGAGACUAGACGGCACCCACCUAAGGCAAACGAUAUGGUGAAGGCAUAGUCGAGGGAGCGGCGAAAGUCACACAAACCGG | 0.0228
GUGCCUUGCGCCGGGAAACCACGCAAGGGAUGGUGUCAAAUUCGGCGAAACCUAAGCGCCCGCCCGGGCGUAUGGCAACGCGGAGCCAAGCUUCGGCGCCUGCGCCGAUGGAGGUGUAGAGACUAGACGGCACCCACCUAAGGCAAACGAUAUGGUGAAGGCAUAGUCGAGGGAGGGGCGAAAGUCACACAAACCGG | 0.00751
GUGCCUUGCGCCGGGAAACCACGCAAGGGAUGGUGUCAAAUUCGGCGAAACCUAAGCGCCCGCCCGGGCGUAUGGCAACGCGGAGCCAAGCUUCGGCGCCUGCGCCGAUGGAGGUGUAGAGACUAGACGGCACCCACCUAAGGCAAACGAUAUGGUGAAGGCAUAGUCUAGGGAGUGGCGAAAGUCACACAAACCGG | 0.0115
GUGCCUUGCGCCGGGAAACCACGCAAGGGAUGGUGUCAAAUUCGGCGAAACCUAAGCGCCCGCCCGGGCGUAUGGCAACGCGGAGCCAAGCUUCGGCGCCUGCGCCGAUGGAGGUGUAGAGACUAGACGGCACCCACCUAAGGCAAACGAUAUGGUGAAGGCAUAGUCUAGGGAGAGGCGAAAGUCACACAAACCGG | 0.0165
GUGCCUUGCGCCGGGAAACCACGCAAGGGAUGGUGUCAAAUUCGGCGAAACCUAAGCGCCCGCCCGGGCGUAUGGCAACGCGGAGCCAAGCUUCGGCGCCUGCGCCGAUGGAGGUGUAGAGACUAGACGGCACCCACCUAAGGCAAACGAUAUGGUGAAGGCAUAGUCUAGGGAGCGGCGAAAGUCACACAAACCGG | 0.0146
GUGCCUUGCGCCGGGAAACCACGCAAGGGAUGGUGUCAAAUUCGGCGAAACCUAAGCGCCCGCCCGGGCGUAUGGCAACGCGGAGCCAAGCUUCGGCGCCUGCGCCGAUGGAGGUGUAGAGACUAGACGGCACCCACCUAAGGCAAACGAUAUGGUGAAGGCAUAGUCUAGGGAGGGGCGAAAGUCACACAAACCGG | 0.00706
GUGCCUUGCGCCGGGAAACCACGCAAGGGAUGGUGUCAAAUUCGGCGAAACCUAAGCGCCCGCCCGGGCGUAUGGCAACGCGGAGCCAAGCUUCGGCGCCUGCGCCGAUGGAGGUGUAGAGACUAGACGGCACCCACCUAAGGCAAACGAUAUGGUGAAGGCAUAGUCCAGGGAGAGGCGAAAGUCACACAAACCGG | 0.0337
GUGCCUUGCGCCGGGAAACCACGCAAGGGAUGGUGUCAAAUUCGGCGAAACCUAAGCGCCCGCCCGGGCGUAUGGCAACGCGGAGCCAAGCUUCGGCGCCUGCGCCGAUGGAGGUGUAGAGACUAGACGGCACCCACCUAAGGCAAACGAUAUGGUGAAGGCAUAGUCCAGGGAGCGGCGAAAGUCACACAAACCGG | 0.0385
GUGCCUUGCGCCGGGAAACCACGCAAGGGAUGGUGUCAAAUUCGGCGAAACCUAAGCGCCCGCCCGGGCGUAUGGCAACGCGGAGCCAAGCUUCGGCGCCUGCGCCGAUGGAGGUGUAGAGACUAGACGGCACCCACCUAAGGCAAACGAUAUGGUGAAGGCAUAGUCCAGGGAGGGGCGAAAGUCACACAAACCGG | 0.0174
GUGCCUUGCGCCGGGAAACCACGCAAGGGAUGGUGUCAAAUUCGGCGAAACCUAAGCGCCCGCCCGGGCGUAUGGCAACGCGGAGCCAAGCUUCGGCGCCUGCGCCGAUGGAGGUGUAGAGACUAGACGGCACCCACCUAAGGCAAACGGUAUGGUGAAGGCAUAGUCCAGGGAGUGGCGAAAGUCACACAAACCGG | 0.0256
GUGCCUUGCGCCGGGAAACCACGCAAGGGAUGGUGUCAAAUUCGGCGAAACCUAAGCGCCCGCCCGGGCGUAUGGCAACGCGGAGCCAAGCUUCGGCGCCUGCGCCGAUGGAGGUGUAGAGACUAGACGGCACCCACCUAAGGCAAACGGUAUGGUGAAGGCAUAGUCAAGGGAGUGGCGAAAGUCACACAAACCGG | 0.00975
